Values quoted from earlier work as cited in PMC12093155.

Molecular target: Prx1 (Homo sapiens) (UniProt Q06830)
Sequence (Q06830 2-199): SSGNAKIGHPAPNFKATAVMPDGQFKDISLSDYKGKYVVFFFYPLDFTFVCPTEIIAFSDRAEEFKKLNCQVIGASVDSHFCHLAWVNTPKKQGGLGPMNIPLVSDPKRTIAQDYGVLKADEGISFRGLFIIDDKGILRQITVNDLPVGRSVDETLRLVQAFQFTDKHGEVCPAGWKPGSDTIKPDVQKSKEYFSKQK

Chain of Srx (Q9BYN0 whole entry): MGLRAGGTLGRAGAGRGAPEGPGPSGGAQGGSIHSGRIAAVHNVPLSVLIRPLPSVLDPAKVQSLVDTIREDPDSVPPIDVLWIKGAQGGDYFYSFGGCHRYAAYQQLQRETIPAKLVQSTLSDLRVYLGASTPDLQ

- Kd: 7 µM
Substance: Srx (from UniProt Q9BYN0)
